Results: patent US20250340622A1 (AstraZeneca / MedImmune, published 2025)

Experiments:
Test in all cases: cell-based or functional assay
[1] = target: RSV B F protein variant N208S (RSV B)
[2] = target: RSV B F protein variant I206M:Q209R:S211N (RSV B)
[3] = target: RSV B F protein variant K65Q:K68N (RSV B)
[4] = target: RSV B F protein variant K68Q:S211N (RSV B)
[5] = target: RSV B F protein variant S211N (RSV B)
[6] = target: RSV B F protein variant I206M:Q209R (RSV B)
[7] = target: RSV B F protein variant L203I (RSV B)
[8] = target: RSV B F protein variant N201S (RSV B)
[9] = target: RSV B F protein variant N201T:I206M:Q209R (RSV B)
[10] = target: RSV B F protein variant K68N:N201S (RSV B, strain B9320)
[11] = target: RSV B F protein variant I64T:K68E:I206M:Q209R (RSV B)
[12] = target: RSV B F protein variant K68N:N208S (RSV B, strain B9320)
[13] = target: RSV B F protein variant K68N (RSV B)
[14] = target: RSV B F protein variant K68Q:I206M:Q209R (RSV B)
[15] = target: RSV B F protein variant N208D (RSV B, strain B9320)

B1: nirsevimab (antibody, human IgG1, kappa, V domains shown)
VH: QVQLVQSGAEVKKPGSSVMVSCQASGGLLEDYIINWVRQAPGQGPEWMGGIIPVLGTVHYGPKFQGRVTITADESTDTAYMELSSLRSEDTAMYYCATETALVVSETYLPHYFDNWGQGTLVTVSS
VL: DIQMTQSPSSLSAAVGDRVTITCQASQDIVNYLNWYQQKPGKAPKLLIYVASNLETGVPSRFSGSGSGTDFSLTISSLQPEDVATYYCQQYDNLPLTFGGGTKVEIKR
- fold reduced susceptibility to nirsevimab (recombinant RSV B variant) [1]: > 24000 fold
- fold reduced susceptibility to nirsevimab neutralization (recombinant RSV neutralization susceptibility assay) [1]: > 387 fold
- fold change in susceptibility to nirsevimab [2]: 0.5 fold
- fold reduced susceptibility to nirsevimab neutralization (recombinant RSV neutralization susceptibility assay) [3]: 1240 fold
- fold reduced susceptibility to nirsevimab neutralization (recombinant RSV neutralization susceptibility assay) [4]: 35.7 fold
- fold change in susceptibility to nirsevimab [5]: 1.2 fold
- fold change in susceptibility to nirsevimab [6]: 0.23 fold
- fold reduced susceptibility to nirsevimab neutralization (recombinant RSV neutralization susceptibility assay) [7]: 3000 fold
- fold reduced susceptibility to nirsevimab neutralization (recombinant RSV neutralization susceptibility assay) [8]: 127 fold
- fold reduced susceptibility to nirsevimab neutralization (recombinant RSV neutralization susceptibility assay) [9]: > 418 fold
- fold reduced susceptibility to nirsevimab (recombinant RSV B variant) [10]: > 13000 fold
- fold reduced susceptibility to nirsevimab neutralization (recombinant RSV neutralization susceptibility assay) [11]: > 447 fold
- fold reduced susceptibility to nirsevimab (recombinant RSV B variant) [12]: > 90000 fold
- fold reduced susceptibility to nirsevimab neutralization (recombinant RSV neutralization susceptibility assay) [13]: 29.9 fold
- fold reduced susceptibility to nirsevimab neutralization (recombinant RSV neutralization susceptibility assay) [14]: 46.4 fold
- fold reduced susceptibility to nirsevimab (recombinant RSV B variant) [15]: > 90000 fold
